# B1: chimera 2K1 antibody: VH and VL of murine 2K1 antibody (SEQ ID NO: 19, 20) conjugated to human Igγ1 and human Igκ (antibody, V domains shown)
# VH: QVQLQQSGAELVRPGASVKLSCKALGYTFTDYEMHWVKQTPVHGLEWIGAIHPGRGGTAYNQKFKGKATLTADKSSSTAYMELSSLTSEDSAVYYCTRITGYFDVWGAGTTVTVSS
# VL: DVLMTQTPLSLPVSLGDQASISCRSSQSIVHSNGNTYLEWYLQKPGQSPKLLIYKVSNRFSGVPDRFSGSGSGTDFTLKISRVEAEDLGVYYCFQGSHVPLTFGAGTKLELKR
# modifications: human IgG1 and kappa constant regions; Mouse
# Legend:
# [1] = test system: mouse collagen arthritis model; assay: Mouse collagen arthritis model (arthritogenic antibody cocktail/LPS); assay type: in vivo; details: text summary of Tables 6 to 9
# Protocol: For arthritis induction, an arthritogenic antibody cocktail (under the trade name of a cocktail for arthritis, Arthrogen-CIA® mAb, Arthritogenic mAb cocktail; manufactured by Iwai Chemical Pharmaceutical Co., Ltd.) recognizing four epitopes specific to collagen was used. To a mouse was intravenously administered the arthritogenic cocktail; 3 days later, LPS (100 μg) was intraperitoneally administered to thereby elicit arthritis. Arthritis was observed on day 3 after LPS dosing, which reached maximum on day 6.
# Immediately before LPS dosing and 3 days later, the M5 antibody was intravenously administered at a dose of 40 μg, 150 μg or 400 μg. As the control group, a rabbit IgG-dosed group (at a dose of 400 μg) was arranged. Additionally, the anti-mouse TNF-α antibody was intravenously administered at a dose of 200 μg/mouse immediately before LPS administration and 3 days later. As the control group, a rat IgG-dosed group (at a dose of 200 μg) was arranged. Further, MTX was orally given (at a dose of 3.2 mg/kg) once daily on the very day of LPS dosing and thereafter. Then, MTX dissolved in 5 ml of 0.5% methyl cellulose solution was used. For the control group, 5 ml of 0.5% methyl cellulose solution was arranged.
# Concerning four items, namely arthritis score, leg edema, body weight change and feed intake, assessment was done per each group of five animals.
# [2] = test system: adhesion of murine NIH 3T3 cell to mOPN/de-GST; assay: Inhibition of NIH 3T3 cell adhesion to murine OPN; assay type: cell-based, mouse; details: peptide 100 μg/mL, FIG. 15
# From the text: It was examined by the method described in the reference (S. Kon et al., (2002): J. Cell. Biochem., 84(2), 420–432) as to whether or not the M5 antibody might inhibit cell adhesion to OPN. As the OPN, the full-length murine OPN was used, from which the GST segment had preliminarily been removed with PreScission protease (Amersham Pharmacia Biotech, Tokyo, Japan) (referred to as “mOPN/de-GST” hereinafter) was used. As the cell, murine NIH 3T3 cell was used.
# [3] = test system: adhesion of α9-transformed SW480 cell to vitronectin; assay: Adhesion of α9-transformed SW480 cell to vitronectin; assay type: cell-based, human; details: 1 μg/ml vitronectin, 200 μM peptide, FIG. 2A
# [4] = test system: adhesion of human fibroblast TIG-7 to CHO/OPN-a; assay: Inhibition of TIG-7 cell adhesion to OPN; assay type: cell-based; details: peptide 100 μg/ml, FIG. 1A
# Protocol: (§1) It was examined by the following method as to whether or not the murine monoclonal antibodies inhibited cell adhesion to OPN. First, a 96-well plate was precoated with various concentrations of the CHO/OPN-a at 4° C. overnight, which was then treated with 0.5% BSA in PBS under conditions of 37° C. for 10 minutes, so as to block non-specific adhesion. A human fibroblast TIG-7 or SW480 cell transformed with the cDNA of an integrin subunit α9 (referred to as “α9-transformed SW480 cell” hereinafter) was suspended in D-MEM containing 0.25% BSA; 200 μl of the resulting cell suspension (at a cell concentration of 5×10^4 cells/well) was injected in a 96-well plate precoated with the CHO/OPN-a or nOPN, in the presence or absence of various concentrations of the monoclonal antibodies or synthetic peptides, for incubation at 37° C. for one hour.
# (§2) The culture medium was discarded from the plate, and all the wells were rinsed twice with D-MEM containing 0.25% BSA. The adherent cells were fixed and stained with 0.5% crystal violet in 20% methanol for 30 minutes.
# All the wells were rinsed three times with water, and the adherent cells were then solubilized into 20% acetic acid. The resulting supernatant recovered from each well was analyzed with an immunoreader, to measure the absorbance at 590 nm to determine the relative count of the cells adhering to the well. All the assays were done in a triplicate fashion, and at least three independent experiments were performed. The values shown represent mean at three independent experiments.
# [5] = test system: adhesion of α9-transformed SW480 cell to nOPN; assay: Adhesion of α9-transformed SW480 cell to nOPN; assay type: cell-based, human; details: 3 μg/ml nOPN, combination of 200 μM GRGDSP peptide and anti-α9β1 antibody Y9A2, FIG. 2A
# Protocol: as §1, §2
# All the wells were rinsed three times with water, and the adherent cells were then solubilized into 20% acetic acid. The resulting supernatant recovered from each well was analyzed with an immunoreader, to measure the absorbance at 590 nm to determine the relative count of the cells adhering to the well. […]
# [6] = target: partial peptide GRGDSVVYGLR of the human osteopontin (Homo sapiens, UniProt P10451); assay: KD assay on BIACORE-2000; assay type: binding; details: compared with murine 2K1 antibody
# Protocol: The KD value of the chimera 2K1 antibody was assayed in the following manner. First, a partial peptide GRGDSVVYGLR (residues 7–17 of SEQ ID NO: 1) of the human osteopontin was biotinylated with a biotinylation kit (Dojindo Corporate). A sensor chip SA was set on BIACORE-2000, to bind 23 RU of a ligand (Bin-GRGDSVVYGLR)(residues 7–17 of SEQ ID NO: 1). […] The data of these sensor grams were analyzed by global fitting at 1:1 (Langmuir) binding by a BIACORE analysis software BIA Evaluation Version 3.0. FIG. 6a is a sensor gram at various concentrations of the murine 2K1 antibody. FIG. 6b is a sensor gram at various concentrations of the chimera 2K1 antibody.
# [7] = test system: human peripheral monocyte migration toward thrombin-cleaved OPN; assay: Migration of TNF-α-activated human peripheral monocyte toward thrombin-cleaved OPN (chimera 2K1); assay type: cell-based; details: for Mean migrating cell counts per 1 mm^3 (monocyte): thrombin-cleaved OPN 10 μg/mL
# Protocol: First, the blood drawn out from a normal subject with heparin was diluted 2-fold with an RPMI 1640 culture medium. The diluted blood was overlaid on the Ficoll-Paque (Pharmacia), which was then centrifuged at 400×g at ambient temperature for 30 minutes. A white layer observed in the interface between the blood plasma and Ficoll-Paque was recovered and used as a monocyte. The monocyte thus obtained was overnight cultured with human TNF-α (20 ng/mL). The resulting activated monocyte was used for a migration experiment.
# The migration experiment was done, using a 48-well microchemotaxis chamber (Neuro Probe Inc.). Human OPN reacted with bovine thrombin (Sigma) at 37° C. for 2 hours, for cleavage. After various concentrations of the 2K1 chimera antibody were added to the resulting human […] and left to stand at 37° C. for 15 minutes, the resulting mixture was added to the lower chamber (the final human OPN concentration was 10 μg/mL). Placing a polycarbonate filter (pore size of 5 μm) thereon, 50 μl of a cell suspension (2×10^6 cells/mL) was added to the upper chamber.
# After culturing in the presence of 5% CO2 at 37° C. for 2 hours, the polycarbonate filter was removed, while […] with Diff-Quick (Baxter). The cells on the surface of the […] filter were counted at a magnification×40. The results are shown as mean cell count (cells/mm^3)±SD in 6 wells.
# [8] = target: BSA-crosslinked osteopontin peptide (BSA-CVDTYDGRGDSVVYGLRS) (Homo sapiens, UniProt P10451); assay: ELISA binding to osteopontin peptide
# From the text: Based on the concentrations of the humanized 2K1 antibody and the chimera 2K1 antibody as determined in Example 13, the binding activities of the humanized 2K1 antibody and the chimera 2K1 antibody with osteopontin peptide (CVDTYDGRGDSVVYGLRS) (SEQ ID NO: 1) were compared with reference to the ELISA of Kon et al. (Journal of Cellular […]: 420–432 (2002)).
# Dilution series of the humanized 2K1 antibody and the chimera 2K1 antibody reacted on a microtiter plate with BSA-crosslinked osteopontin peptide (BSA-CVDTYDGRGDSVVYGLRS)(SEQ ID NO: 1) immobilized thereon. Then, the antibodies bound to BSA-CVDTYDGRGDSVVYGLRS (SEQ ID NO: 1) reacted with protein A-HRP, and finally with TMB (Dojindo Corporate), to measure the absorbance at a wavelength of 450 nm.
# Additionally, reaction on a plate with only BSA immobilized thereon as a negative control was also measured in the same manner.
# As a negative control, additionally, the binding activity of the chimera 2K1 antibody to BSA (open circle) and the binding activity of the humanized 2K1 antibody to BSA (open square) are also shown.
molecule,measurement,setting,value
CN(Cc1cnc2nc(N)nc(N)c2n1)c1ccc(C(=O)N[C@@H](CCC(=O)O)C(=O)O)cc1 [MTX],"effect on arthritis score, onset of arthritis and leg edema (therapeutic effect)",[1],almost no pharmaceutical efficacy
GRGDSP [reference compound],inhibition of NIH 3T3 adhesion to mOPN/de-GST,[2],apparently inhibited
same,inhibition of adhesion between vitronectin and α9-transformed SW480 cell,[3],inhibited
same,inhibition of TIG-7 adhesion to OPN,[4],apparently inhibited
same,inhibition of adhesion of α9-transformed SW480 cell to nOPN,[5],inhibited
B1,reduction of the affinity due to the chimera preparation,[6],No reduction
same,inhibition of migration of TNF-α-activated human peripheral neutrophil and monocyte toward thrombin-cleavage-type OPN,[7]; summary of Table 3,inhibited
same,Mean migrating cell counts per 1 mm^3 (monocyte),[7]; antibody 12.5 μ/mL,1010.0 ± 59.1 counts per 1 mm^3
same,Mean migrating cell counts per 1 mm^3 (monocyte),[7]; antibody 25 μ/mL,1153.3 ± 96.2 counts per 1 mm^3
same,Mean migrating cell counts per 1 mm^3 (monocyte),[7]; antibody 50 μ/mL,895.0 ± 78.0 counts per 1 mm^3
same,Mean migrating cell counts per 1 mm^3 (monocyte),[7]; antibody 100 μ/mL,821.7 ± 50.2 counts per 1 mm^3
same,Mean migrating cell counts per 1 mm^3 (monocyte),[7]; antibody 250 μ/mL,865.0 ± 64.9 counts per 1 mm^3
same,Mean migrating cell counts per 1 mm^3 (monocyte),[7]; antibody 500 μ/mL,830.0 ± 44.1 counts per 1 mm^3
same,binding activity to BSA-CVDTYDGRGDSVVYGLRS,"[8]; ELISA, absorbance 450 nm, FIG. 13",had binding activities
same,binding activity to BSA (negative control plate),"[8]; ELISA, plate with only BSA immobilized",not to BSA
same,comparison of binding activities of both antibodies to BSA-CVDTYDGRGDSVVYGLRS,[8]; humanized versus chimera 2K1 antibody,at the same level

# Reference: US7241873B2, “Recombinant anti-osteopontin antibody and use thereof” (Juridical Foundation the Chemo-sero-therapeutic Research …, priority 2001, dated 2007)
